Assay results taken from US20120172293A1 (Takeda / Millennium, published 2012).
Non-standard residues stand in square brackets, D forms with d. No end group written: not given here. 4Amb = NCc1ccc(C(=O)O)cc1

B1: 4-Aminomethylbenzoyl-[Ala26,30, Ile28,31]-PYY(25-36) (peptide)
peptide: [4Amb]RAYINAITRQRY-NH2
modifications: N-terminus assumed
SMILES: CC[C@H](C)[C@H](NC(=O)[C@H](C)NC(=O)[C@H](CC(N)=O)NC(=O)[C@@H](NC(=O)[C@H](Cc1ccc(O)cc1)NC(=O)[C@H](C)NC(=O)[C@H](CCCNC(=N)N)NC(=O)c1ccc(CN)cc1)[C@@H](C)CC)C(=O)N[C@H](C(=O)N[C@@H](CCCNC(=N)N)C(=O)N[C@@H](CCC(N)=O)C(=O)N[C@@H](CCCNC(=N)N)C(=O)N[C@@H](Cc1ccc(O)cc1)C(N)=O)[C@@H](C)O
notes: also called compound No. 32
B2: 4-Aminomethylbenzoyl-[Ala26, Arg27, Ile28,31]-PYY(25-36) (peptide)
peptide: [4Amb]RARINLITRQRY-NH2
modifications: N-terminus assumed
SMILES: CC[C@H](C)[C@H](NC(=O)[C@H](CCCNC(=N)N)NC(=O)[C@H](C)NC(=O)[C@H](CCCNC(=N)N)NC(=O)c1ccc(CN)cc1)C(=O)N[C@@H](CC(N)=O)C(=O)N[C@@H](CC(C)C)C(=O)N[C@H](C(=O)N[C@H](C(=O)N[C@@H](CCCNC(=N)N)C(=O)N[C@@H](CCC(N)=O)C(=O)N[C@@H](CCCNC(=N)N)C(=O)N[C@@H](Cc1ccc(O)cc1)C(N)=O)[C@@H](C)O)[C@@H](C)CC
notes: also called compound No. 29
B3: 4-Aminomethylbenzoyl-[Ala26, Ile28,31, Gly30]-PYY(25-36) (peptide)
peptide: [4Amb]RAYINGITRQRY-NH2
modifications: N-terminus assumed
SMILES: CC[C@H](C)[C@H](NC(=O)CNC(=O)[C@H](CC(N)=O)NC(=O)[C@@H](NC(=O)[C@H](Cc1ccc(O)cc1)NC(=O)[C@H](C)NC(=O)[C@H](CCCNC(=N)N)NC(=O)c1ccc(CN)cc1)[C@@H](C)CC)C(=O)N[C@H](C(=O)N[C@@H](CCCNC(=N)N)C(=O)N[C@@H](CCC(N)=O)C(=O)N[C@@H](CCCNC(=N)N)C(=O)N[C@@H](Cc1ccc(O)cc1)C(N)=O)[C@@H](C)O
notes: also called compound No. 45
B4: 4-Aminomethylbenzoyl-[Ala26, Ile28,31, Leu32]-PYY(25-36) (peptide)
peptide: [4Amb]RAYINLILRQRY-NH2
modifications: N-terminus assumed
SMILES: CC[C@H](C)[C@H](NC(=O)[C@H](Cc1ccc(O)cc1)NC(=O)[C@H](C)NC(=O)[C@H](CCCNC(=N)N)NC(=O)c1ccc(CN)cc1)C(=O)N[C@@H](CC(N)=O)C(=O)N[C@@H](CC(C)C)C(=O)N[C@H](C(=O)N[C@@H](CC(C)C)C(=O)N[C@@H](CCCNC(=N)N)C(=O)N[C@@H](CCC(N)=O)C(=O)N[C@@H](CCCNC(=N)N)C(=O)N[C@@H](Cc1ccc(O)cc1)C(N)=O)[C@@H](C)CC
notes: also called compound No. 62
B5: 4-Aminomethylbenzoyl-[Ala26, Gln27, Ile28,31]-PYY(25-36) (peptide)
peptide: [4Amb]RAQINLITRQRY-NH2
modifications: N-terminus assumed
SMILES: CC[C@H](C)[C@H](NC(=O)[C@H](CCC(N)=O)NC(=O)[C@H](C)NC(=O)[C@H](CCCNC(=N)N)NC(=O)c1ccc(CN)cc1)C(=O)N[C@@H](CC(N)=O)C(=O)N[C@@H](CC(C)C)C(=O)N[C@H](C(=O)N[C@H](C(=O)N[C@@H](CCCNC(=N)N)C(=O)N[C@@H](CCC(N)=O)C(=O)N[C@@H](CCCNC(=N)N)C(=O)N[C@@H](Cc1ccc(O)cc1)C(N)=O)[C@@H](C)O)[C@@H](C)CC
notes: also called compound No. 30
B6: 4-Aminomethylbenzoyl-[Ala26,31, Ile28]-PYY(25-36) (peptide)
peptide: [4Amb]RAYINLATRQRY-NH2
modifications: N-terminus assumed
SMILES: CC[C@H](C)[C@H](NC(=O)[C@H](Cc1ccc(O)cc1)NC(=O)[C@H](C)NC(=O)[C@H](CCCNC(=N)N)NC(=O)c1ccc(CN)cc1)C(=O)N[C@@H](CC(N)=O)C(=O)N[C@@H](CC(C)C)C(=O)N[C@@H](C)C(=O)N[C@H](C(=O)N[C@@H](CCCNC(=N)N)C(=O)N[C@@H](CCC(N)=O)C(=O)N[C@@H](CCCNC(=N)N)C(=O)N[C@@H](Cc1ccc(O)cc1)C(N)=O)[C@@H](C)O
notes: also called compound No. 33

target: T1, human Y2 receptor (human, UniProt P49146 1-381); assay: RBA: [125I]-PYY displacement, hY2R/CHO membranes
T1 construct: whole, on cells; used as membrane fraction of hY2R/CHO cells; also called human NPY2R; hY2R
T1 sequence (looked up): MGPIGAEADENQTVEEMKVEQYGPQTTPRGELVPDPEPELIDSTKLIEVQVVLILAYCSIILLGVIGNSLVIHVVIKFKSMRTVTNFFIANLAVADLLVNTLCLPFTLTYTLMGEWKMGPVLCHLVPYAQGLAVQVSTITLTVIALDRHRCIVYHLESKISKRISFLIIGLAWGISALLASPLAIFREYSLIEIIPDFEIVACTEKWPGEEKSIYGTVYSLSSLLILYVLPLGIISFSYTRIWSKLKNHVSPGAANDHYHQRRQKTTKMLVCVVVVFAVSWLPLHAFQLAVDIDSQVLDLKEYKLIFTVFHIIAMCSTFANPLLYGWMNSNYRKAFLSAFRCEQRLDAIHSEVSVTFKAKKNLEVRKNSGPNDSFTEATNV
Outline: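 Bound radioligand was collected by filtration on PEI-treated GF/C filters, washed with Tris/MgCl₂/NaCl/CHAPS buffer pH 7.4, and counted by scintillation; IC₅₀ values were calculated.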

Compared with B1, B2 is lower in “IC50 Ratio (vs PYY(3-36))” value: 9.1 ratio for the first, 6.8 ratio for the second.

First: B3
Second: B4
The “IC50 Ratio (vs PYY(3-36))” value of the first is higher: 21 ratio for the first, 18 ratio for the second.

First: B5
Second: B6
The “IC50 Ratio (vs PYY(3-36))” value of the first is higher: 25 ratio for the first, 23 ratio for the second.

target: T1, human Y2 receptor; assay: cell-based or functional assay

Compared with B1, B2 is lower in “GBA EC50 Ratio (vs PYY(3-36)), [35S]GTPγS” value (“GBA EC50 Ratio” for short): 7.4 ratio for the first, 4.3 ratio for the second.

Going from B3 to B4, the “GBA EC50 Ratio” value rises from 12 ratio to 15 ratio.

First: B5
Second: B6
The “GBA EC50 Ratio” value of the first is lower: 14 ratio for the first, 17 ratio for the second.
